For data set [1], the target named is T1, Ros1WOPR-His (Ustilago maydis (FB1?)) (UniProt A0A0D1BVT7).
T1 sequence: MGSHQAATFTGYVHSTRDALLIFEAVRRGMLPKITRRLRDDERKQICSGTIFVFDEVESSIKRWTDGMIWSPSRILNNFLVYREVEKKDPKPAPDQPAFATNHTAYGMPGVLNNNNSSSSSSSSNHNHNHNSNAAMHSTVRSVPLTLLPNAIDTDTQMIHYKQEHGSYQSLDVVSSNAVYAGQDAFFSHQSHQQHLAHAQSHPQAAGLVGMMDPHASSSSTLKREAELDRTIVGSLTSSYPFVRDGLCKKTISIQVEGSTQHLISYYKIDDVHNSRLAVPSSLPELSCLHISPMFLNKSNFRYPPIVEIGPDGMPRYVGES
Nature of the data set: competition EMSA. Background: Mobility shift assays separate free from complexed probe on a gel.

For data set [2], the target named is T1, Ros1WOPR-His (Ustilago maydis (FB1?)). Nature of the data set: EMSA.

In the case of “CGCCAGAGACAAGTACTGTTCCCAATTCGGAGCTTCGCCGTGAACCACGAATTCATGCATTTCCATATTGGCAAAATATTAAAAAATTGAGGGTTTTGGCGTTGGCCTTTTGAGAGTTTATTTTAGATTTAATTAAGTGATTATGAGGATGATTCTTTTTCTTCATCTTCCTGTAACCGTCACCTGCCACGCTTGCCTAGACGCAGCAGTATCCACTCCGTAGGCGTATGCTATTGT (double strand) [WT-probe unlabeled competitor]”, in data set [1], the binding result is given as “binds”. Turning to “CGCCAGAGACAAGTACTGTTCCCAATTCGGAGCTTCGCCGTGAACCACGAATTCATGCATTTCCATATTGGCAAAATATTAAAAAATTGAGGGTTTTGGCGTTGGCCTTTTGAGAGTTTATTTTAGATTTAATTAAGTGATTATGAGGATGATTCTTTTTCTTCATCTTCCTGTAACCGTCACCTGCCACGCTTGCCTAGACGCAGCAGTATCCACTCCGTAGGCGTATGCTATTGT (double strand) [WT-probe (ros1 promoter)]”, the binding entry in data set [2] is on record as “binds”.

For the origin of these results see paper PMC4917244.
